The source of these data is patent publication US20100272731A1 (SCHERING, published 2010).

Where “and” joins values, the source holds several entries; their conditions need not be identical. Equal entries are not always repeated.

Experiment [1] deals with T1, human IL-23 (human, UniProt P29460 23-328).
T1 sequence 1: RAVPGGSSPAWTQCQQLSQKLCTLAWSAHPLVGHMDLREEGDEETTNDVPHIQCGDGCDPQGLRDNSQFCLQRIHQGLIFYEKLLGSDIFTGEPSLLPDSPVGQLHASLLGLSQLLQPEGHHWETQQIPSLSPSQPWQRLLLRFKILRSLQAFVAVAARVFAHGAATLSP
T1 sequence 2: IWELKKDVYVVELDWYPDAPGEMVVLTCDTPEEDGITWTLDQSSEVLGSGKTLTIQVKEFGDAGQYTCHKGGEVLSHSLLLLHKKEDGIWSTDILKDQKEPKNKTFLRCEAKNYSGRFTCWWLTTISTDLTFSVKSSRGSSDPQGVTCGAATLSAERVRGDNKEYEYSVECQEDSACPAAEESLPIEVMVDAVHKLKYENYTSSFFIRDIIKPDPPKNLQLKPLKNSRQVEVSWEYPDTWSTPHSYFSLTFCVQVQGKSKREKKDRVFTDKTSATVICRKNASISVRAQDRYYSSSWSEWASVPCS
Kind of experiment: cell-based or functional assay.

For experiment [2], the target named is T1, human IL-23. Kind of experiment: cell-based or functional assay. This is another data set of the same source.
The target in experiment [3] is T1, human IL-23. Description: cell-based or functional assay. This is another data set of the same source.
For experiment [4], the target named is T1, human IL-23. Kind of experiment: BIAcore (SPR), essentially as in Example 4. As for the experimental part:
(§1) BIAcore determinations are performed essentially as described at Example 4 of commonly assigned U.S. Patent Application Publication No. 2007/0048315. Briefly, ligands (anti-IL-23 mAbs) are immobilized on a BlAcore CM5 sensor chip using standard amine-coupling procedure. IL-23 is diluted in PBS to produce various concentrations. Kinetic constants for the various interactions are determined using BIAevaluation software 3.1. The Kd is determined using the calculated dissociation and association rate constants.
In general terms: Surface plasmon resonance follows binding to a sensor surface in real time, without labels.

Experiment [5] has as its target T1, human IL-23. Description: BIAcore (SPR), antibody amine-coupled to CM5 chip, IL-23 as analyte. As for the experimental part:
as §1

The target of experiment [6] is T2, non-linked (native) human IL-23 comprising two disulfide-linked chains, human p19 and human p40 (human, UniProt P29460 23-328).
T2 sequence 1: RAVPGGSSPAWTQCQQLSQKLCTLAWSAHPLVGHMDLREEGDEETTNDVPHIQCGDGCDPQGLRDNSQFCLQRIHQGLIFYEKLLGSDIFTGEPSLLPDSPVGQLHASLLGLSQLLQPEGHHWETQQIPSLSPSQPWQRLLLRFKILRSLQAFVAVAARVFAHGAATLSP
T2 sequence 2: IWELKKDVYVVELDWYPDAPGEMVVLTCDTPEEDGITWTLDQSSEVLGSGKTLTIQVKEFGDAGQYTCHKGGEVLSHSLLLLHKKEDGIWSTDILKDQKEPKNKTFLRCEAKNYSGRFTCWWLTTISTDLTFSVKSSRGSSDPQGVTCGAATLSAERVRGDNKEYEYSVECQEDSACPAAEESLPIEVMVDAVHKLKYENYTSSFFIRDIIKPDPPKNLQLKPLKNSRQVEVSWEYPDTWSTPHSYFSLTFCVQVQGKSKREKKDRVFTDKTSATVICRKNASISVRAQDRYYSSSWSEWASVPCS
Kind of experiment: KinExA, antibody pre-incubated with native human IL-23 in solution; third replicate determination. As for the experimental part: (§2) The equilibrium dissociation constant (Kd) for anti human IL-23 antibodies is determined using the KinExA 3000 instrument. Sapidyne Instruments Inc., Boise Id., USA. KinExA uses the principle of the Kinetic Exclusion Assay method based on measuring the concentration of uncomplexed antibody in a mixture of antibody, antigen and antibody-antigen complex. The concentration of free antibody is measured by exposing the mixture to a solid-phase immobilized antigen for a very brief period of time. In practice, this is accomplished by flowing the solution phase antigen-antibody mixture past antigen-coated particles trapped in a flow cell. Data generated by the instrument are analyzed using custom software. Equilibrium constants are calculated using a mathematical theory based on the following assumptions: […]
(§3) Binding of anti-IL-23p19 antibodies is assessed in a competition binding assay, in which antibodies are pre-incubated with non-linked (native) human IL-23 comprising two disulfide-linked chains, human p19 (SEQ ID NO: 47) and human p40 (GenBank Accession No. P29460), at a series of concentrations. […] The amount of antibody captured by the PMMA particles is then detected using a fluorescently labeled secondary antibody.
On the technique in general: In KinExA the mixture passes briefly over coated beads that capture the unbound partner.

For experiment [7], the target named is T2, non-linked (native) human IL-23 …. Kind of experiment: KinExA, antibody pre-incubated with native human IL-23 in solution; fourth replicate determination. As for the experimental part: as §2, §3
For experiment [8] the target is unchanged. Kind of experiment: KinExA, antibody pre-incubated with native human IL-23 in solution; second replicate determination. The procedure: as §2, §3
For experiment [9] the target is unchanged. Description: KinExA, antibody pre-incubated with native human IL-23 in solution; first replicate determination (64 ± 40). The procedure:
as §2, §3

Experiment [10] addresses T1, human IL-23. Description: BIAcore (SPR), antibody amine-coupled to CM5 chip, IL-23 as analyte; first determination, lower end of range 72-104. The procedure:
as §1

In experiment [11] the target is T1, human IL-23. Description: BIAcore (SPR), antibody amine-coupled to CM5 chip, IL-23 as analyte; first determination, upper end of range 72-104. As for the experimental part:
as §1

Experiment [12] addresses T1, human IL-23. Description: BIAcore (SPR), antibody amine-coupled to CM5 chip, IL-23 as analyte; third determination, lower end of range 81-129. The procedure: as §1
The target in experiment [13] is T1, human IL-23. Description: BIAcore (SPR), antibody amine-coupled to CM5 chip, IL-23 as analyte; third determination, upper end of range 81-129. The procedure:
as §1

Experiment [14] deals with T1, human IL-23. Description: BIAcore (SPR), antibody amine-coupled to CM5 chip, IL-23 as analyte; second determination, lower end of range 68-100. The procedure: as §1
Experiment [15] concerns the target T1, human IL-23. Kind of experiment: BIAcore (SPR), antibody amine-coupled to CM5 chip, IL-23 as analyte; second determination, upper end of range 68-100. As for the experimental part: as §1
In experiment [16] the target is T1, human IL-23. Description: BIAcore (SPR), antibody amine-coupled to CM5 chip, IL-23 as analyte; first replicate determination. As for the experimental part: as §1
Experiment [17] deals with T1, human IL-23. Kind of experiment: BIAcore (SPR), antibody amine-coupled to CM5 chip, IL-23 as analyte; second replicate determination. The procedure: as §1
Table 4 provides the Kd values as determined by BlAcore, including replicate determinations.

B1: humanized anti-IL-23p19 antibody 13B8-b (antibody, human IgG1, kappa, V domains shown)
VH: QVQLVQSGAEVKKPGASVKVSCKASGYIFITYWMTWVRQAPGQGLEWMGQIFPASGSADYNEKFEGRVTMTTDTSTSTAYMELRSLRSDDTAVYYCARGGGGFAYWGQGTLVTVSS
VL: DIQMTQSPSSLSASVGDRVTITCRTSENIYSYLAWYQQKPGKAPKLLIYNAKTLAEGVPSRFSGSGSGTDFTLTISSLQPEDFATYYCQHHYGIPFTFGQGTKVEIKR
notes: also called hum13B8-b; Hum 13B8-b
Broadly, the Kd is the constant that tells how readily two partners part at equilibrium. Read a low Kd as higher affinity. On to B1, for which, in the experiment with human IL-23 [1], the “IC50 in the Ba/F3 proliferation assay (340 pM IL-23)” value amounted to 187 pM; the “IC50 in the KIT225 STAT-3 phosphorylation assay (138 pM human IL-23)” value was determined as 130 pM; the “IC50 in the human splenocyte assay (IFN-γ production, 170 pM human IL-23)” value lay in the range of 0.059 to 0.144 nM. The “IC50 for blocking of Ba/F3 cell proliferation” value (shortened to “IC50 for blocking”) with human IL-23 [2] was 1.2 nM and 1.1 nM. Further, the “Splenocyte assay IC50 (IL-17 production by mouse splenocytes)” value (from here on “Splenocyte assay IC50”) with human IL-23 [3] was 0.11 nM and 0.221 nM. Besides, binding in the experiment with human IL-23 [4] was put at a Kd of 0.297 nM. Moreover, in the experiment with human IL-23 [5], the dissociation constant (Kd) is 0.077 nM and 0.129 nM and 0.069 nM and 0.116 nM.

B2: humanized anti-IL-23p19 antibody 13B8-c (antibody, human IgG1, kappa, V domains shown)
VH: QVQLVQSGAEVKKPGASVKVSCKASGYIFITYWMTWVRQAPGQGLEWMGQIFPASGSADYAQKLQGRVTMTTDTSTSTAYMELRSLRSDDTAVYYCARGGGGFAYWGQGTLVTVSS
VL: DIQMTQSPSSLSASVGDRVTITCRTSENIYSYLAWYQQKPGKAPKLLIYNAKTLAEGVPSRFSGSGSGTDFTLTISSLQPEDFATYYCQHHYGIPFTFGQGTKVEIKR
notes: also called hum13B8-c; h13B8-c
On to B2, for which the “IC50 for blocking” value with human IL-23 [2] is 1.1 nM and 2.2 nM. Further, the “Splenocyte assay IC50” value in the experiment with human IL-23 [3] was 0.515 nM. The same molecule showed a dissociation constant Kd in the experiment with human IL-23 [5] of 0.092 to 0.153 nM.

B3: humanized anti-IL-23p19 antibody 13B8-a (antibody, human IgG1, kappa, V domains shown)
VH: QVQLVQSGAEVKKPGASVKVSCKASGYIFITYWMTWVRQAPGQGLEWMGQIFPASGSADYNEMFEGRVTMTTDTSTSTAYMELRSLRSDDTAVYYCARGGGGFAYWGQGTLVTVSS
VL: DIQMTQSPSSLSASVGDRVTITCRTSENIYSYLAWYQQKPGKAPKLLIYNAKTLAEGVPSRFSGSGSGTDFTLTISSLQPEDFATYYCQHHYGIPFTFGQGTKVEIKR
notes: also called hum13B8-a; h13B8-a
In the case of B3, in the experiment with human IL-23 [2], the “IC50 for blocking” value amounted to 1.1 nM. Besides, the Kd in [6] was 0.365 nM; in experiment [7], 0.447 nM; in experiment [8], 0.11 nM; in experiment [9] it was 0.064 nM; with human IL-23 [10], not below 0.072 nM; in the experiment with human IL-23 [11] it was not above 0.104 nM. Besides, the Kd in the experiment with human IL-23 [12] is not below 0.081 nM; in the experiment with human IL-23 [13] it was not above 0.129 nM; in the experiment with human IL-23 [14], not below 0.068 nM; in the experiment with human IL-23 [15] it was not above 0.1 nM.

B4: murine antibody 13B8 (mouse IgG1/kappa) (antibody, V domains shown)
VH: HVQLQQSGPELVRPGASVELSCKASGYIFITYWMTWMKQRPGQGLEWIGQIFPASGSADYNEMFEGKATLTVDTSSNTAYMQLSSLTSEDSAVYFCARGGGGFAYWGQGTLVTVSA
VL: DIQMTQSPASLSASVGETVTITCRTSENIYSYLAWYQQKQGKSPQLLVYNAKTLAEGVPSRFSGSGSGTQFSLKINRLQPEDFGRYFCQHHYGIPFTFGSGTKLEIKR
notes: also called m13B8; mouse 13B8
Consider B4, for which, in the experiment with human IL-23 [2], the “IC50 for blocking” value was 0.7 nM. Besides, the “Splenocyte assay IC50” value in the experiment with human IL-23 [3] is 0.064 nM and 0.028 nM and 0.054 nM. Besides, the figures for the equilibrium dissociation constant (Kd) in the experiment with human IL-23 [16] and with human IL-23 [17] were 0.173 nM and 0.228 nM, respectively.
